T1: cynomolgus monkey CD3 epsilon chain (CD3ε) (cynomolgus monkey (Macaca fascicularis), UniProt Q95LI5 22-198)
T1 chain: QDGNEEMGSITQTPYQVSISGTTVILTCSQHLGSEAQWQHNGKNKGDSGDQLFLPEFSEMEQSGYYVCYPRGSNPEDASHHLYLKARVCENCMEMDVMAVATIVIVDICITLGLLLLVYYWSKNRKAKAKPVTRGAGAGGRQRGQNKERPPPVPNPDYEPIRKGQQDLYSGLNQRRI

B1: H69070.4 (anti-MSLN/CD3ε heterodimeric bispecific antibody) (bispecific antibody)
chain 1: QVQLVESGGGVVQPGRSLRLSCAASGFTFSSYGMHWVRQAPGKGLEWVAVISYPGNTKYYADSVKGRFTISRDNSKNTLYLQMNSLRAEDTAVYFCARDQKEWRLIFDYWGQGTLVTVSSASTKGPQVQLQESGPGLVKPSETLSLTCTVSGGSIISHYWSWIRQPPGKGLEWIGYIYYSGSTNYNPSLKSRVTISVDTSKNQFSLKLTSVTAADTAVYYCARDGWSAFDYWGQGTLVTVSSASTKGPSVFPLAPCSRSTSESTAALGCLVKDYFPEPVTVSWNSGALTSGVHTFPAVLQSSGLYSLSSVVTVPSSNFGTQTYTCNVDHKPSNTKVDKTVGGGGSAAAVPRDLEVVAATPTSLLISWDAPHHGVAYYRITYGETGGNSPVQEFTVPGSKSTATISGLKPGVDYTINVYAVLAYPRGYPLSKPISINYRTDYKDDDDKGSSHHHHHH
chain 2: DIQMTQSPSSVSASVGDRVTITCRASQGISSWLAWYQQKPGKAPKLLIYAASSLQSGVPSRFSGSGSGAAFTLTISSLQPEDFATYFCQQANSFPLTFAGGTKVDIKRTVAAPDIQMTQSPSSLSASVGDRVTITCRASQGIRNALGWYQQKPGKAPKRLIYAASSLQSGVPSRFSGSGSGTEFTLTISSLQPEDFATYYCLQHNSYPRTFGQGTKVEIRRTVAAPSVFIFPPSDEQLKSGTASVVCLLNNFYPREAKVQWKVDNALQSGNSQESVTEQDSKDSTYSLSSTLTLSKADYEKHKVYACEVTHQGLSSPVTKSFNRGEC
B2: H69071.4 (anti-MSLN/CD3ε heterodimeric bispecific antibody) (bispecific antibody)
chain 1: QVQLQESGPGLVKPSQTLSLTCTVSGGSINNNNYYWTWIRQHPGKGLEWIGYIYYSGSTFYNPSLKSRVTISVDTSKTQFSLKLSSVTAADTAVYYCAREDTMTGLDVWGQGTLVTVSSGGGGSGGGGSDIQMTQSPSSVSASVGDRVTITCRASQGISSWLAWYQQKPGKAPKLLIYAASSLQSGVPSRFSGSGSGAAFTLTISSLQPEDFATYFCQQANSFPLTFAGGTKVDIKRASTKGPSVFPLAPCSRSTSESTAALGCLVKDYFPEPVTVSWNSGALTSGVHTFPAVLQSSGLYSLSSVVTVPSSNFGTQTYTCNVDHKPSNTKVDKTVGGGGSAAAVPRDLEVVAATPTSLLISWDAPHHGVAYYRITYGETGGNSPVQEFTVPGSKSTATISGLKPGVDYTINVYAVLAYPRGYPLSKPISINYRTDYKDDDDKGSSHHHHHH
chain 2: QVQLVESGGGVVQPGRSLRLSCAASGFTFSSYGMHWVRQAPGKGLEWVAVISYPGNTKYYADSVKGRFTISRDNSKNTLYLQMNSLRAEDTAVYFCARDQKEWRLIFDYWGQGTLVTVSSGGGGSGGGGSDIQMTQSPSSLSASVGDRVTITCRASQSINNYLNWYQQKPGKAPTLLIYAASSLQSGVPSRFSGSRSGTDFTLTISSLQPEDFAAYFCQQTYSNPTFGQGTKVEVKRTVAAPSVFIFPPSDEQLKSGTASVVCLLNNFYPREAKVQWKVDNALQSGNSQESVTEQDSKDSTYSLSSTLTLSKADYEKHKVYACEVTHQGLSSPVTKSFNRGEC
B3: P57216.9 (anti-MSLN/CD3ε heterodimeric bispecific antibody) (bispecific antibody)
chain 1: QVQLQESGPGLVKPSQTLSLTCTVSGGSINNNNYYWTWIRQHPGKGLEWIGYIYYSGSTFYNPSLKSRVTISVDTSKTQFSLKLSSVTAADTAVYYCAREDTMTGLDVWGQGTLVTVSSASTKGPEVQLVESGGGLVKPGVSLRLSCAASGFTFSRYSMNWVRQAPGKGLEWVSSISSSGTYIKYADSVKGRFTISRDNAKNSLNLQMNSLRAEDTAVYYCARDRDRYPLDYWGQGTLVTVSSASTKGPSVFPLAPCSRSTSESTAALGCLVKDYFPEPVTVSWNSGALTSGVHTFPAVLQSSGLYSLSSVVTVPSSNFGTQTYTCNVDHKPSNTKVDKTVGGGGSAAAVPRDLEVVAATPTSLLISWDAPHHGVAYYRITYGETGGNSPVQEFTVPGSKSTATISGLKPGVDYTINVYAVLAYPRGYPLSKPISINYRTDYKDDDDKGSSHHHHHH
chain 2: DIQMTQSPSSLSASVGDRVTITCRASQSINNYLNWYQQKPGKAPTLLIYAASSLQSGVPSRFSGSRSGTDFTLTISSLQPEDFAAYFCQQTYSNPTFGQGTKVEVKRTVAAPSSYELTQPPSVSVSPGQTARITCSGDALPKKYAYWYQQKSGQAPVLVIYEATKRPSGIPERFSGSSSGTMATLTLSGAQVEDEADYYCYSTDSTNYHWVFGGGTKLTVLGQPKAAPSVTLFPPSSEELQANKATLVCLISDFYPGAVTVAWKADSSPVKAGVETTTPSKQSNNKYAASSYLSLTPEQWKSHRSYSCQVTHEGSTVEKTVAPTECS
B4: P69058.3 (anti-MSLN/CD3ε heterodimeric bispecific antibody) (bispecific antibody)
chain 1: QVQLQESGPGLVKPSQTLSLTCTVSGGSINNNNYYWTWIRQHPGKGLEWIGYIYYSGSTFYNPSLKSRVTISVDTSKTQFSLKLSSVTAADTAVYYCAREDTMTGLDVWGQGTLVTVSSGGGGSGGGGSSSYELTQPPSVSVSPGQTARITCSGDALPKKYAYWYQQKSGQAPVLVIYEATKRPSGIPERFSGSSSGTMATLTLSGAQVEDEADYYCYSTDSTNYHWVFGGGTKLTVLGASTKGPSVFPLAPCSRSTSESTAALGCLVKDYFPEPVTVSWNSGALTSGVHTFPAVLQSSGLYSLSSVVTVPSSNFGTQTYTCNVDHKPSNTKVDKTVGGGGSAAAVPRDLEVVAATPTSLLISWDAPHHGVAYYRITYGETGGNSPVQEFTVPGSKSTATISGLKPGVDYTINVYAVLAYPRGYPLSKPISINYRTDYKDDDDKGSSHHHHHH
chain 2: EVQLVESGGGLVKPGVSLRLSCAASGFTFSRYGMNWVRQAPGKGLEWVSSISSSGTYIKYADSVKGRFTISRDNAKNSLNLQMNSLRAEDTAVYYCARDRDRYPLDYWGQGTLVTVSSGGGGSGGGGSDIQMTQSPSSLSASVGDRVTITCRASQSINNYLNWYQQKPGKAPTLLIYAASSLQSGVPSRFSGSRSGTDFTLTISSLQPEDFAAYFCQQTYSNPTFGQGTKVEVKRTVAAPSVFIFPPSDEQLKSGTASVVCLLNNFYPREAKVQWKVDNALQSGNSQESVTEQDSKDSTYSLSSTLTLSKADYEKHKVYACEVTHQGLSSPVTKSFNRGEC
notes: VH(CD3ε)-linker-VL(MSLN)-CL
B5: P69059.3 (anti-MSLN/CD3ε heterodimeric bispecific antibody) (bispecific antibody)
chain 1: SYELTQPPSVSVSPGQTARITCSGDALPKKYAYWYQQKSGQAPVLVIYEATKRPSGIPERFSGSSSGTMATLTLSGAQVEDEADYYCYSTDSTNYHWVFGGGTKLTVLGGGGGSGGGGSQVQLQESGPGLVKPSQTLSLTCTVSGGSINNNNYYWTWIRQHPGKGLEWIGYIYYSGSTFYNPSLKSRVTISVDTSKTQFSLKLSSVTAADTAVYYCAREDTMTGLDVWGQGTTVTVSSASTKGPSVFPLAPCSRSTSESTAALGCLVKDYFPEPVTVSWNSGALTSGVHTFPAVLQSSGLYSLSSVVTVPSSNFGTQTYTCNVDHKPSNTKVDKTVGGGGSAAAVPRDLEVVAATPTSLLISWDAPHHGVAYYRITYGETGGNSPVQEFTVPGSKSTATISGLKPGVDYTINVYAVLAYPRGYPLSKPISINYRTDYKDDDDKGSSHHHHHH
chain 2: DIQMTQSPSSLSASVGDRVTITCRASQSINNYLNWYQQKPGKAPTLLIYAASSLQSGVPSRFSGSRSGTDFTLTISSLQPEDFAAYFCQQTYSNPTFGQGTKVEVKGGGGSGGGGSEVQLVESGGGLVKPGVSLRLSCAASGFTFSRYSMNWVRQAPGKGLEWVSSISSSGTYIKYADSVKGRFTISRDNAKNSLNLQMNSLRAEDTAVYYCARDRDRYPLDYWGQGTLVTVSSRTVAAPSVFIFPPSDEQLKSGTASVVCLLNNFYPREAKVQWKVDNALQSGNSQESVTEQDSKDSTYSLSSTLTLSKADYEKHKVYACEVTHQGLSSPVTKSFNRGEC
notes: VL(MSLN)-linker-VH(CD3ε)-CL
B6: H71362.2 (anti-MSLN/CD3ε heterodimeric bispecific antibody) (bispecific antibody)
chain 1: EVQLVESGGGLVKPGVSLRLSCAASGFTFSRYGMNWVRQAPGKGLEWVSSISSSGTYIKYADSVKGRFTISRDNAKNSLNLQMNSLRAEDTAVYYCARDRDRYPLDYWGQGTLVTVSSASTKGPQVQLQESGPGLVKPSETLSLTCTVSGGSIISHYWSWIRQPPGKGLEWIGYIYYSGSTNYNPSLKSRVTISVDTSKNQFSLKLTSVTAADTAVYYCARDGWSAFDYWGQGTLVTVSSASTKGPSVFPLAPCSRSTSESTAALGCLVKDYFPEPVTVSWNSGALTSGVHTFPAVLQSSGLYSLSSVVTVPSSNFGTQTYTCNVDHKPSNTKVDKTVGGGGSAAAVPRDLEVVAATPTSLLISWDAIGLYPYYYRITYGETGGNSPVQEFTVPGSKSTATISGLKPGVDYTITVYAVSGIFGWNNSKPISINYRTGSSDYKDDDDKGSSHHHHHH
chain 2: SYELTQPPSVSVSPGQTARITCSGDALPKKYAYWYQQKSGQAPVLVIYEATKRPSGIPERFSGSSSGTMATLTLSGAQVEDEADYYCYSTDSTNYHWVFGGGTKLTVLGTVAAPDIQMTQSPSSLSASVGDRVTITCRASQGIRNALGWYQQKPGKAPKRLIYAASSLQSGVPSRFSGSGSGTEFTLTISSLQPEDFATYYCLQHNSYPRTFGQGTKVEIRRTVAAPSVFIFPPSDEQLKSGTASVVCLLNNFYPREAKVQWKVDNALQSGNSQESVTEQDSKDSTYSLSSTLTLSKADYEKHKVYACEVTHQGLSSPVTKSFNRGEC

Target: T1, cynomolgus monkey CD3 epsilon chain …
Assay: cell-based or functional assay

| Binder | Cyno TDCC EC50 (pM), Ovcar-8 target cells with cynomolgus monkey T cells [pM] | Cyno TDCC Max killing (%), Ovcar-8 target cells with cynomolgus monkey T cells [%] |
| --- | --- | --- |
| B1 | 3 | 88 |
| B2 | 3.2 | 88 |

target: T2, human CD3 epsilon chain (CD3ε) (human, UniProt P07766 22-207); assay: FACS on isolated human T cells; FITC anti-human light chain secondary
T2 construct: also called CD3ε on human T cells; human CD3ε
Method: (§1) The heterodimeric bispecific antibodies described in Example 1 were produced in HEK 293 cells and were assayed by fluorescence activated cell sorting (FACS) for binding to T cells, which express CD3ε, and to a human ovarian cancer cell line, Ovcar-8, which expresses mesothelin. Briefly, the heterodimeric bispecific antibodies were incubated with about 50,000 Ovcar-8 cells or isolated human or cynomolgus monkey T cells at 4° C. for one hour. The cells were then washed and stained with a fluorescein isothiocyanate (FITC)-conjugated anti-human light chain secondary antibody and analyzed by flow cytometry. The relative binding was represented by the geometric mean of fluorescence intensity.

T2 sequence (P07766 22-207 limits assumed): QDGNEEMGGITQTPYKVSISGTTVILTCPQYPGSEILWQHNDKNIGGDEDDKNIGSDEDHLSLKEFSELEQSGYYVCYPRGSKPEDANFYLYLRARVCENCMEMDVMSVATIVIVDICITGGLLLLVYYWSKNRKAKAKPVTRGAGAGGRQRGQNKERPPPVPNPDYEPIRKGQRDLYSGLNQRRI

| Binder | FACS binding (geometric mean) |
| --- | --- |
| B1 | 9 geometric mean of fluorescence intensity |
| B2 | 16 geometric mean of fluorescence intensity |
| B3 | 103 geometric mean of fluorescence intensity |
| B4 | 290 geometric mean of fluorescence intensity |
| B5 | 179 geometric mean of fluorescence intensity |
| B6 | 354 geometric mean of fluorescence intensity |

Target: T1, cynomolgus monkey CD3 epsilon chain …
Assay: FACS on isolated cynomolgus monkey T cells; FITC anti-human light chain secondary
Method: as §1

| Binder | FACS binding (geometric mean) |
| --- | --- |
| B1 | 127 geometric mean of fluorescence intensity |
| B2 | 121 geometric mean of fluorescence intensity |

Source: patent US20160115241A1 (Amgen, published 2016)
